This note sets out measurements from article PMC6607443 (2019).

dynein light chain LC8, sequence (P63167 whole entry): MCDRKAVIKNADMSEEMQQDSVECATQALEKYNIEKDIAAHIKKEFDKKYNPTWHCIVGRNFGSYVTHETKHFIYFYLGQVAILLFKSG

The assay concerns the target dynein light chain LC8 (UniProt P63167 1-89). The experiment in a line: ITC.
SEIHGISRMTQTPQ [RavL peptide] came in with a Kd of 8000 nM.

The molecule EKELRHIGTQISSD [ICE1 peptide] yielded a Kd of 3600 nM.

YGCTRHQSVQTEDG [MAST1 peptide] displayed a Kd of 1700 nM.

Take ARAGRSVSTQTGSM [CIZ1 peptide]: the Kd amounted to 800 nM.

HPETQDSSTQTDTS [SPAG5 peptide]: the Kd was 1300 nM.

Regarding SSSTRSIDTQTPSV [GLCCI1 peptide], the Kd came out at 4900 nM.

Take PVLTSATGTQTSPA [MUC3A peptide]: the Kd was 4500 nM.

Molecule PAPPSYSDKGVQTPSK [ZFPM1 peptide] yielded a Kd of 1600 nM.

The molecule QDFMKHLDKKTQTPKL [CCL7 peptide] came in with a Kd of 2800 nM.

NQSFTTASTQTPPQ [CAPRIN2 peptide] had a Kd of 2600 nM.

Take DDHSREKGTQTSGD [SLC9A2 peptide]: binding was characterised by a dissociation constant (Kd) of 2200 nM.

As for YDSMDHLDKQTQTPKT [CCL2 peptide], the affinity, expressed as Kd, was 4700 nM.

PRATAEFSTQTPSP [bassoon (BSN) peptide, modified version with the TQT motif near the C-terminus] registered a Kd of 6300 nM.

On to APMSCDKSTQTPSP [BCL2L11 peptide], for which the Kd is 200 nM.

By Kd is commonly meant the constant that tells how readily two partners part at equilibrium. High values mean weaker binding, low ones tighter binding.
